# Tested on: Escherichia coli TOP10
# Assay: shrunken log2 fold change of peptide-encoding DNA abundance (4.5 h post-induction vs induction); higher = less antimicrobial activity (less host growth inhibition)
# Conditions: time post-induction: 4.5 h; library: site-saturation at positions 5, 18, 19, 20
# 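Further: peptides expressed intracellularly from a pBAD plasmid library in pooled LB shake-flask culture, induced with 0.3% L-arabinose, DNA abundance read by NGS, three biological replicates, DESeq2 with apeglm shrinkage.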
row,Sequence,shrunken log2 fold change
1,RRIRCRPPRLPRPRPRPGSKPRP,-0.179
2,RRIRHRPPRLPRPRPRPVREPRP,0.522
3,RRIRDRPPRLPRPRPRPRMFPRP,-0.0535
4,RRIRVRPPRLPRPRPRPSVQPRP,-0.0929
5,RRIRCRPPRLPRPRPRPLIMPRP,-0.689
6,RRIRKRPPRLPRPRPRPMSYPRP,-0.0167
7,RRIRFRPPRLPRPRPRPMAVPRP,-0.0113
8,RRIRGRPPRLPRPRPRPPQFPRP,0.676
9,RRIRQRPPRLPRPRPRPDMCPRP,-0.225
10,RRIRFRPPRLPRPRPRPNDHPRP,-0.512
11,RRIRDRPPRLPRPRPRPTPQPRP,0.0786
12,RRIRDRPPRLPRPRPRPVVRPRP,0.155
13,RRIRKRPPRLPRPRPRPDSKPRP,-0.0709
14,RRIRDRPPRLPRPRPRPAMHPRP,0.527
15,RRIRWRPPRLPRPRPRPGEHPRP,0.232
16,RRIRQRPPRLPRPRPRPLSPPRP,-0.109
17,RRIRARPPRLPRPRPRPIMTPRP,0.0421
18,RRIRQRPPRLPRPRPRPKSNPRP,-0.29
19,RRIRLRPPRLPRPRPRPPIPPRP,0.316
20,RRIRMRPPRLPRPRPRPVMIPRP,0.021
21,RRIRMRPPRLPRPRPRPSHEPRP,0.267
22,RRIRARPPRLPRPRPRPILLPRP,-0.293
23,RRIRERPPRLPRPRPRPITPPRP,-0.628
24,RRIRFRPPRLPRPRPRPCFWPRP,0.0499
25,RRIRGRPPRLPRPRPRPLNVPRP,-0.095

row,Sequence,shrunken log2 fold change
1,RRIRCRPPRLPRPRPRPCCYPRP,-0.696
2,RRIRCRPPRLPRPRPRPHWPPRP,0.149
3,RRIRRRPPRLPRPRPRPEATPRP,2.74
4,RRIRWRPPRLPRPRPRPPEKPRP,0.269
5,RRIRRRPPRLPRPRPRPFDEPRP,0.0762
6,RRIRARPPRLPRPRPRPCQLPRP,-0.0907
7,RRIRCRPPRLPRPRPRPEWKPRP,0.0169
8,RRIRDRPPRLPRPRPRPSNCPRP,-0.576
9,RRIRYRPPRLPRPRPRPDWPPRP,-0.0212
10,RRIRERPPRLPRPRPRPRVYPRP,0.000497
11,RRIRDRPPRLPRPRPRPKTKPRP,-0.0788
12,RRIRDRPPRLPRPRPRPAEHPRP,-0.0618
13,RRIRDRPPRLPRPRPRPPEYPRP,-0.0893
14,RRIRDRPPRLPRPRPRPQIYPRP,-0.114
15,RRIRRRPPRLPRPRPRPRNRPRP,-0.0263
16,RRIRWRPPRLPRPRPRPEDFPRP,0.0629
17,RRIRGRPPRLPRPRPRPACSPRP,0.773
18,RRIRDRPPRLPRPRPRPWGDPRP,0.13
19,RRIRERPPRLPRPRPRPMNWPRP,0.0377
20,RRIRERPPRLPRPRPRPVPDPRP,0.268
21,RRIRLRPPRLPRPRPRPCTMPRP,-0.152
22,RRIRWRPPRLPRPRPRPVARPRP,0.359
23,RRIRQRPPRLPRPRPRPTPDPRP,0.711
24,RRIRFRPPRLPRPRPRPMDHPRP,-0.131
25,RRIRQRPPRLPRPRPRPIYEPRP,-0.0255

row,Sequence,shrunken log2 fold change
1,RRIRQRPPRLPRPRPRPGYYPRP,-0.476
2,RRIRNRPPRLPRPRPRPNPLPRP,0.0887
3,RRIRPRPPRLPRPRPRPSYQPRP,-0.493
4,RRIRCRPPRLPRPRPRPRIPPRP,-0.00295
5,RRIRSRPPRLPRPRPRPLMEPRP,-0.0249
6,RRIRLRPPRLPRPRPRPPCFPRP,0.242
7,RRIRGRPPRLPRPRPRPMDGPRP,-0.0481
8,RRIRPRPPRLPRPRPRPTEMPRP,0.218
9,RRIRMRPPRLPRPRPRPLDMPRP,0.167
10,RRIRTRPPRLPRPRPRPWFSPRP,-0.152
11,RRIRARPPRLPRPRPRPNILPRP,-0.00643
12,RRIRPRPPRLPRPRPRPCYAPRP,-0.414
13,RRIRIRPPRLPRPRPRPGTPPRP,-0.0727
14,RRIRVRPPRLPRPRPRPFMHPRP,-0.156
15,RRIRQRPPRLPRPRPRPERHPRP,0.181
16,RRIRERPPRLPRPRPRPHNDPRP,-0.335
17,RRIRYRPPRLPRPRPRPIFSPRP,-1.43
18,RRIRHRPPRLPRPRPRPVEYPRP,-0.0122
19,RRIRMRPPRLPRPRPRPVLVPRP,0.223
20,RRIRWRPPRLPRPRPRPHIDPRP,-0.466
21,RRIRSRPPRLPRPRPRPCDYPRP,-0.238
22,RRIRERPPRLPRPRPRPRPSPRP,-0.093
23,RRIRYRPPRLPRPRPRPDWGPRP,-0.0597
24,RRIRKRPPRLPRPRPRPKGSPRP,0.436
25,RRIRCRPPRLPRPRPRPKKPPRP,-0.0369

row,Sequence,shrunken log2 fold change
1,RRIRGRPPRLPRPRPRPFGMPRP,0.228
2,RRIRKRPPRLPRPRPRPCVAPRP,0.223
3,RRIRMRPPRLPRPRPRPAIYPRP,0.0389
4,RRIRKRPPRLPRPRPRPEGKPRP,0.201
5,RRIRWRPPRLPRPRPRPWDGPRP,0.00386
6,RRIRYRPPRLPRPRPRPETFPRP,-0.0918
7,RRIRTRPPRLPRPRPRPKGMPRP,0.138
8,RRIRHRPPRLPRPRPRPPCSPRP,-0.217
9,RRIRERPPRLPRPRPRPNTFPRP,-0.388
10,RRIRWRPPRLPRPRPRPKWMPRP,0.242
11,RRIRGRPPRLPRPRPRPFFRPRP,0.211
12,RRIRTRPPRLPRPRPRPHWFPRP,-0.132
13,RRIRGRPPRLPRPRPRPFKYPRP,-0.221
14,RRIRKRPPRLPRPRPRPQDCPRP,-0.104
15,RRIRWRPPRLPRPRPRPRKAPRP,0.285
16,RRIRGRPPRLPRPRPRPNCNPRP,0.199
17,RRIRWRPPRLPRPRPRPWFCPRP,-0.0932
18,RRIRVRPPRLPRPRPRPIVAPRP,-0.00399
19,RRIRTRPPRLPRPRPRPQHGPRP,-0.187
20,RRIRQRPPRLPRPRPRPKFNPRP,-0.271
21,RRIRARPPRLPRPRPRPYMMPRP,-1.22
22,RRIRGRPPRLPRPRPRPKQDPRP,0.881
23,RRIRMRPPRLPRPRPRPVIRPRP,0.00204
24,RRIRMRPPRLPRPRPRPDCSPRP,0.172
25,RRIRTRPPRLPRPRPRPPLAPRP,0.65

row,Sequence,shrunken log2 fold change
1,RRIRERPPRLPRPRPRPKTQPRP,-0.102
2,RRIRLRPPRLPRPRPRPWRMPRP,0.0332
3,RRIRNRPPRLPRPRPRPNVFPRP,-0.43
4,RRIRDRPPRLPRPRPRPYDAPRP,-0.00235
5,RRIRARPPRLPRPRPRPSPCPRP,0.0808
6,RRIRPRPPRLPRPRPRPMYDPRP,-0.0348
7,RRIRPRPPRLPRPRPRPDTMPRP,-0.649
8,RRIRDRPPRLPRPRPRPSQRPRP,-0.0409
9,RRIRQRPPRLPRPRPRPCGRPRP,0.411
10,RRIRQRPPRLPRPRPRPYLFPRP,-0.509
11,RRIRIRPPRLPRPRPRPSTDPRP,-0.247
12,RRIRERPPRLPRPRPRPLVVPRP,0.0509
13,RRIRMRPPRLPRPRPRPTHYPRP,0.226
14,RRIRMRPPRLPRPRPRPIVRPRP,-0.0408
15,RRIRIRPPRLPRPRPRPLIWPRP,-0.236
16,RRIRCRPPRLPRPRPRPASHPRP,-0.241
17,RRIRLRPPRLPRPRPRPKPIPRP,0.111
18,RRIRERPPRLPRPRPRPKMKPRP,-0.226
19,RRIRHRPPRLPRPRPRPTCLPRP,-0.0796
20,RRIRYRPPRLPRPRPRPKWKPRP,-0.0135
21,RRIRRRPPRLPRPRPRPNYEPRP,0.0979
22,RRIRDRPPRLPRPRPRPYPGPRP,-0.0524
23,RRIRWRPPRLPRPRPRPMGEPRP,0.0775
24,RRIRSRPPRLPRPRPRPTNIPRP,-0.434
25,RRIRRRPPRLPRPRPRPCWFPRP,0.225

row,Sequence,shrunken log2 fold change
1,RRIRTRPPRLPRPRPRPCHEPRP,-0.0167
2,RRIRMRPPRLPRPRPRPMLHPRP,0.0756
3,RRIRWRPPRLPRPRPRPSSTPRP,0.0549
4,RRIRRRPPRLPRPRPRPQCDPRP,0.333
5,RRIRIRPPRLPRPRPRPTMSPRP,-0.124
6,RRIRPRPPRLPRPRPRPPKVPRP,0.122
7,RRIRYRPPRLPRPRPRPGFFPRP,-0.205
8,RRIRMRPPRLPRPRPRPMDRPRP,-0.0181
9,RRIRSRPPRLPRPRPRPTMHPRP,0.0312
10,RRIRLRPPRLPRPRPRPIHEPRP,0.139
11,RRIRFRPPRLPRPRPRPHQCPRP,-0.315
12,RRIRGRPPRLPRPRPRPPASPRP,1.07
13,RRIRARPPRLPRPRPRPIYGPRP,0.0455
14,RRIRERPPRLPRPRPRPHKWPRP,-0.0895
15,RRIRPRPPRLPRPRPRPNNYPRP,-0.0307
16,RRIRFRPPRLPRPRPRPMGWPRP,0.0642
17,RRIRNRPPRLPRPRPRPTSTPRP,-0.7
18,RRIRKRPPRLPRPRPRPDYMPRP,0.0305
19,RRIRVRPPRLPRPRPRPQPAPRP,0.0494
20,RRIRARPPRLPRPRPRPHGGPRP,0.301
21,RRIRDRPPRLPRPRPRPHWLPRP,0.149
22,RRIRERPPRLPRPRPRPLYDPRP,-1.62
23,RRIRKRPPRLPRPRPRPDQCPRP,0.0219
24,RRIRGRPPRLPRPRPRPHKVPRP,0.184
25,RRIRIRPPRLPRPRPRPYVTPRP,-0.526
